{"source": "the DeepSol protein solubility set", "data": [{"assay": "soluble on expression in E. coli; label from the status in PepcDB or PDB records", "values": [{"sequence": "MSLGAYLSEPLTTKDSSDESNEFLASGSSSMQGWRISQEDAHNCILNFDDQCSFFAVYDGHGGAEVAQYCSLHLPTFLKTVEAYGRKEFEKALKEAFLGFDATLLQEKVIEELKVLSGDSAGSDAEPGKDSGCTAVVALLHGKDLYVANAGDSRCVVCRNGKALEMSFDHKPEDTVEYQRIEKAGGRVTLDGRVNGGLNLSRAIGDHGYKMNKSLPAEEQMISALPDIEKITVGPEDEFMVLACDGIWNFMTSEQVVQFVQERINKPGMKLSKICEELFDHCLAPHTRGDGTGCDNMTAIIVQFKEGHHHHHH", "soluble on expression in E. coli": "soluble"}, {"sequence": "MGSDKIHHHHHHDSDIDPVYVLSGDSMELMGGPNEVILTPDNPQALALTVYWSGDGRLALSDTLLQAPVNVAEITIQFSKDEHFTAPLNIAVDKNIHSRQFLCEELNSLLDRLGYEANEKAPLWIRMRSALAANIAPEYSNVMEVLVQSYRIELVLAQVLDKDWKNTSMTLASPAEDGIYKGFMGVNGWENWWLREANNVMWGNLGEEGKTFYASSEDSHWNFWFPNPSGCYYTTVNTVEGWWSALHVASLSVSGDVTGEMAYNKQSNQWTLPVNLATQSTLTISVSGKGSLYNRETTDIGPAIEQTVAFGGNSQNLLFGESADNISVTMPAGENLLVLDLSNPLQFTIGIGEDVPQPEVSQYLYFSGITNWEGFDDYLTLYDEAGLCYGGAHWIDSEWGYRAYTEQAWEPAYNAADGSTDLSGTLILAESKDNIPAPAQGLYVMDFNMKSLTYELTQVQTVTFTGLNDNWSESPMTQSAENPEIFTAEFIKEKKSPWGVKVLINNNWNLFFGGGSGILHLKHSESSAGFDGDDELEIGKTYVLTVDLGHQTYSYSLK", "soluble on expression in E. coli": "not soluble"}, {"sequence": "MSLERLRVAAYCRVSTDSEDQLNSYKSQVQYYTDMIKKNKEWVLADIYADEAITGTQVTKREDFQRMINDCMNGEIDMVITKSISRFARNTLDTLKYVRMLKERNIAVYFEDEKINTLTMDGELLLVVLSSVAQQEVENISANVKKGLKMKMKRGELVGFQGCLGYDYHPEDKTITVNQEEAEIVRYIFNRYVDGAGGSVIGQELENLGYKTKYGSSTWAPSTVIGIIKNEKYKGDILLGKTFTVDPISKRRLENMGEEDKFYMKDHHEPIISEEVFEKAQEILNRRNKNREGHHHHHH", "soluble on expression in E. coli": "soluble"}, {"sequence": "MGFYLTSRIMKNIKSQGNGEQPAISRRHFIQASSALIALPFVSSPATAQARAVTATENRPAEKVVQTCSTFDCGGKCDIRAHVSDGIVTRISTRPDNALDAQMPVMRACVRGRAYRKFVYHPDRLKYPMKRVGKRGEGKFERISWDEATTLIADNLKSITEKYGPASRYVHVGTAVSGGTFSGDKMARRLLNLTGGYLESYHSVSMGNTAAATPYTYGIAASGSSLDTLLDTKLVILWGHNPTETIFGHTNYFLQKMKQNGTRFIVVDPRYSDTVSSLADQWIPLLPTTDNALMDAMMYVIISENLHDRAFIARYAIGFDEDSMPEGVPANESLVAYLTGAKDGVVKSPEWAEKITHVPAQTIRQLARDYANTKPAALIQGWGPQRHNCGERTARGSTLLATITGNVGIKGGWAAGYGGCANRKFAAGPEMPDNPVKAKISVMNWVQAADDASKVTPDMGLKDADKLDSNIRILFSLAGNYLANQNPDLHQAVRVLEDESKIQFIVASDLFMTPSAKYADLLLPETSFMERWNIGETWGTASYLILSEKLIEPEFERRSDYDWLREVAAKLGIENEFSQGRDEKAWIEHIWEQTRLAMPDENLPDFATLQKTRQHLFKSAPFIAFEDNIRDPENHPFPTPSGKIEIFSKRLYDMQHPEIPALSHYVPAHEGPEDALAKDFPLQLITWKGKNRANSTQYANPWLIEVQQQTLWINPQDAQKRGITHGDMVRIHNSRGICEIPAEVTPRIIPGVVAMQAGAWWQPDENGVDKGGCANVLSSARITALAKGNSHQTMLVEVAKA", "soluble on expression in E. coli": "not soluble"}, {"sequence": "MDVDLASVEVVFAQKLACGEPATRQRALRVLHDWIRDQSAKKHFDDADLMRLCKGLHYVMWMQDKMILQEELADRIGGLINIFTSEEEKVRFVACFLKSLSKEWPHIDRWRMDKFLMEVRRMVRACFTHLAELKWKKDIRDEYWKVFQETTISTDKSFNEALKFHFASILLDELDAAGGLTKKQVTACLKPYIELLGNKDISEYLFTSLYEEIFKTILQQKSDLITAVEEGEEMDQGGIEFSYKEIGALLFEVGKQEHLNAKRRKKIYDLVKKFDKSSRGQDPLHFETPVPKERLTRHDYEEAEKKAIVLANSFKQERKSSRKVKSQIKKRAREAAEAARQENGDDVPDDEIAEVKKGNGKKTAVPKVKKGRPLLKAKGVGKKRMVGGLKRKAGKKN", "soluble on expression in E. coli": "not soluble"}, {"sequence": "AHHHHHHGSKIKRKIYWTKEFDSSHLLDLPYESKCKRIHGHTYRIEIEIYGDINEQGMIFDFNHLSDLIKELDHKIIVSKNWIEEREEFIVVKKNQKTLEIPRSEVVVIDKPNVTAEYLAEWFVEKILEKADKNIYEIKVRVWEDPRSYAEVTLELQGS", "soluble on expression in E. coli": "soluble"}, {"sequence": "MSLAQNMTIKDDFIHAFSSNANEPDWFLDIRRNAFKAYGELDLPFVDKTKITRWNFTKFETFIPFKEGVTNETLPEKVANLVDLDNKEANFYVQMDERPARLQLQQELVDQGVIFTDIISAVKNHPELVKKYFMKDAVQVNEHKLTAFHAALVNGGIFLYVPKNVEVKSPIQAVFVQDKAESPLVNHVLLVADDNSAVTYVENYVTVNNEPKGIVSIVEEVIAEKNARITFGGVDNLASEVTAYVNRRGHIGTDSQIEWALGLMNDGDTINENVTNLMGDGSSADVKTVTVGRGKQTQNVTTRVTHYGKASNGTILSHGVMKERATTIFNGIGHIKHGASKSDAQQESRVLMLSPEARGDANPILLIDENDVVAGHAASVGRVDPLQLFYLMSRGISQKEAERLVIHGFLDPVVRQLPIESVKTMLREVIEGKVREGHHHHHH", "soluble on expression in E. coli": "soluble"}, {"sequence": "MSTVVEKSGEAKPGKVEVGVKLRGAEKVARIPVKIIPTEELPKKPDWIRVRIPVSPEVDRIKQLLRKHKLHSVCEEASCPNLGECFSGGTATFMIMGDICTRRCPFCDVGHGRPKPLDVDEPTNLAIAIADLRLKYVVITSVDRDDLRDGGAQHFADCLREIRKLSPGIQLETLVPDYRGRMDIALEITANEPPDVFNHNLETVPRLYRSSRPGSDFEWSLDLLQKFKQMVPHVPTKSGLMLGLGETDDEVIEVMQRMREHDIDMLTLGQYLQPSRNHLPVQRFVHPDTFAWFAEEGEKMGFKNVASGPLVRSSYHADQQAHGNKIG", "soluble on expression in E. coli": "not soluble"}, {"sequence": "MGSDKIHHHHHHVNYIKRAMENTFLRLAKEFPALLLTGPRQTGKTTMLQKLAAEEKIGRNYVTLDDLTERQMAKNDPKMFLQIHKPPVFIDEVQYAPELFSYIKIHIDRHHRPGDFWLTGSQVFKLMDGVQESLAGRVGLLHMSPMSQAESCGADTTPFILDLEQLTRRVRERNPLDTPALYERIFRGGMPALVSGQYTDHWALYSSYISTYLDRDVKEISGTINSLRFMDFITAAAALCGQMLNYKTIADAAGIDQLTAKGWLGILERLGIIFYLHPYANNMLKRMVTKPKLYFYDCGLVAYLTKWSDSATLMNGAMSGAILENFVVSEIIKSYQNYGREAFIYYYRDKDTKEIDILLEDSGKLYPMEIKKTATPQKQLTRVFNVIDKATLERGTGAVLCTTDRLSAFDSENLIIPIWGI", "soluble on expression in E. coli": "not soluble"}, {"sequence": "GMRKDDVVIVTCAITGAIHTPSMSPYLPVTPDQIVEEAVKAAEAGAGMVHIHARDPKDGRPTTDVEVFRYICREIKKQSDVVINVTTGGGGTLGIPVEERAKVVPALKPEIATFNMGSMNFAIHPLLKKYKEFKYDWEPEYLEMTRDIVFRNTFKDLEALSRIFKENDTKPELECYDIGQIYNTAFMFHEGYLEPPLRLQFIHGILGGIGTAVEDVLFMKQTADRLIGRENYTWSLVGAGRFQMPLGTLAVIMGGDVRVGLEDSLYIERGKLAKSNAEQVEKMVRIVKELGKRPATPDEVREILGLKGKERVNF", "soluble on expression in E. coli": "soluble"}, {"sequence": "MFARIESGKIIAQKRKELGKTQKVLAEETNVNKSIISQIENGKFSGSLRVYEKYINGLGLELAVRPIKSKIPDFDNLHHLFPDE", "soluble on expression in E. coli": "not soluble"}, {"sequence": "MVWTYTYDLDNQLISANKTGSSNSLAYDGAGRLRQTTLAGTITGLTYDGVDLVAEYNSGGTLLRRYVHGPGVDEPLVWYEGTTTTNKTWLYQDQLGSVIGTANSAGTSTAIHSYGPYGEPNIATGIRFRYTGQQFLGSLNLYYYKARFYSPALGRFLQTDPIGIADDLNLYAYVGNNPINFNDPSGLSAAAASMLLGKLGSWGRENAGTLTEIGIGFTPAGFYTDLYSAVAGRTPITGDSLSGWERVAILIPGVSEIRNAGRIGSSIQGVAESTIKQVNPTNLIPTQTRSEMSGSQIKRLEKDMRTNGFDQNKPIDAVRRTDGRLEIQDGHHRVEAAKRAGIDQIPVQIWEKLEHHHHHH", "soluble on expression in E. coli": "not soluble"}, {"sequence": "GPGSMMTPEDATGLEAARKQKIHNLKLKTACLENEELVQELHISDWSETQRQKLRGAHEKGEELLASVEVGTKWNLMEAYDLAKLMRVCGLEMSQRELYRPEDKPQFMDIIGVKKVLQDLRQNRNKTRVVSFTQLIDNSIAKMEKVEEELRRSQLDATQLAQVPTRTVKMMEDIMNATQIQNALASTDDQMQTQLAQLEKTNEIQNVAMHDGEMQVAEEQMWTKVQLQERLIELLKDKFGLIGKCEEENAQFKEIYEVQKQANQETSQMKDAKRRLRQRCETDLKHIQDAIQKADLEDAEAAKRYAGNKERSERAIKENEEMQEEAWNKIQDLERQLQNLGTDRFDEVKRRIEEVDREEKRRVENAQFLEIAAQHKKLLELTVYNCDLAMRCTGLVEELVSEGCAGVKARYDKTNQDLAALRLEVHKEHLEYFRMLYLTLGSLIYKKEKRLEEIDRNIRLAHIQLEFCVETFDPNAKKHADMKKELYKLRQGVEEELAMLKEKQAAALDDFKESEEALDAAGIEFSHPVDENNEEVLTRRSKMVEYKSHLTKQEEVRIAAEREEIKRARLLRSGGESAAAQITSGSMNADYAASAQLEL", "soluble on expression in E. coli": "soluble"}, {"sequence": "MGSDKIHHHHHHMIENLNGIHETVKYKEYSNVKLFINAEAEDYPIHWHTPMEIIMPLEGGYTVQIGDDLVHLNENDIIFIASGVKHRLIAPDTGKRLILQIEWSAVSKIKELNSILTLIAPAITLTPETSGDIHSNIRKLLLDISNEYQTDSFLSEAVIYSKILEVLVLIGRHHTASSCHFNVGRHKQQEYLERFLSICEYIDTHCTEDITLDEIAKIAGFSKYHFTRLFKQFTNNTFYKYLNQKRIELALTLLADPNISVTETAMQSGFANPSTFIRVFKTEKGCTPTEFRKMFIG", "soluble on expression in E. coli": "not soluble"}, {"sequence": "SSLPLNAIEPCVICQGRPKNGCIVHGKTGHLMACFTCAKKLKKRNKPCPVCRQPIQMIVLTYFP", "soluble on expression in E. coli": "soluble"}, {"sequence": "MKVSTKDKIIESAVMLFNQKGFSGTSVREIAKSADVNVAHISYYFKGKGGLMEHLVSEFYEGYSKTLETAASNISTQSTQEQLLQLVFDILSYQHNHRQLTRFVYREVTIDSTLIREIMSTYLMKEKYIFQLIIEEGEKQREYLTLPLPHFILQLKSLLMMPYLQPQYISEVLYMQPHEPYFYKMYFEEIKIWIRSVFRTGDVALTN", "soluble on expression in E. coli": "not soluble"}, {"sequence": "MRGSHHHHHHTDPALRARNRTLADLDRVVALGGGHGLGRVLSSLSSLGSRLTGIVTTTDNGGSTGRIRRSEGGIAWGDMRNCLNQLITEPSVASAMFEYRFGGNGELSGHNLGNLMLKALDHLSVRPLEAINLIRNLLKVDTHLIPMSEHPVDLMAIDDQGHEVYGEVNIDQLTTPIQELLLTPNVPATREAVHAINEADLIIIGPGSFYTSLMPILLLKEIAQALRRTPAPMVYIGNLGRELSLPAANLKLESKLAIMEQYVGKKVIDAVIVGPKVDVSAVKERIVIQEVLEASDIPYRHDRQLLHNALEKALQALGGLCGR", "soluble on expression in E. coli": "soluble"}, {"sequence": "MQNIHQHNYVISLKTADARRQHIIQEFAKHNIPFQFFDACSIENNLYMDIEKHLPMLLNSKLSNSEKGCLMSHFLLWKKCVLDDIPYMTIFEDDIILSDESNEFISDYSWVNNRFYEQKEILIKFETFLMPVIRKFTKINEYKERAFNQLISRHFGTASYLISKEAAKYLILLYEKLPADELIAVDESIFNVLLNDKNLCVYQLEPAICVQELQFNKENSLLISQIEEDRYKNQKQNKPRKTLKQRIIKVCYNINRIFKKIKKTKLSDEKDINSDIVKFKLEHHHHHH", "soluble on expression in E. coli": "not soluble"}]}]}
